Assay [1] deals with F-actin from rabbit skeletal muscle acetone powder (rabbit) (UniProt P68135).
In assay [2] the target is rhodamine phalloidin F-actin (G-actin from Cytoskeleton, AKL99) (UniProt P68135). The experiment in a line: ultrafast force-clamp spectroscopy (optical tweezers); single biotinylated myosin-5B on a streptavidin bead pedestal, single actin filament suspended between two trapped alpha-actinin beads; 25 mM MOPS pH 7.2, 25 mM KCl, 4 mM MgCl2, 1 mM EGTA, 2 uM CaM, 100 uM ATP; assistive and resistive forces 0.5-3 pN; no added Ca2+.

For “myosin-5B heavy meromyosin with bound calmodulin (Flag-tagged) (from UniProt P21271 1-1095; P0DP29 1-149) (complex)”, the actin-activated steady-state ATPase activity (NADH-coupled assay), Kapp for F-actin at 2000 µM ATP in assay [1] came to 1.34 µM.

“biotinylated Avi-tag myosin-5B heavy meromyosin with bound calmodulin (from UniProt P21271 1-1095; P0DP29 1-149) (complex)”: in assay [2], the k0^+ (detachment rate from actin, exponential fit extrapolated to zero force, resistive forces, 100 µM ATP) is 0.64 s⁻¹ and the k0^− (detachment rate from actin, exponential fit extrapolated to zero force, assistive forces, 100 µM ATP) was 2.3 s⁻¹.

The values are drawn from paper PMC6054644.
